In article PMC8649222:
pKd: −log10 of the molar value. Blank lines part the entries; values can stand above or below the substance they belong to.

What was measured:
IL-6:sIL-6R complex = IL-6:sIL-6R complex (UniProt P05231)
[1] = molecular target: Hyper-IL-6 (Homo sapiens) (UniProt P05231); details: cited from earlier work
IL-11:sIL-11R complex = IL-11:sIL-11R complex (UniProt P20809)
IL-11:sIL-11R complex, sequence (P20809 22-199, chain 1 of 2): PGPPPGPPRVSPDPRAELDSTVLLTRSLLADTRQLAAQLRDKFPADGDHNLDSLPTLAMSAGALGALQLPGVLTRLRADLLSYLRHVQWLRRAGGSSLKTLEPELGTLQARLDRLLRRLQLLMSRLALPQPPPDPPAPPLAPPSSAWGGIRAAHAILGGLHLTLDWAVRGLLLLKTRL
IL-11:sIL-11R complex, sequence (Q14626 24-370, chain 2 of 2, further chain): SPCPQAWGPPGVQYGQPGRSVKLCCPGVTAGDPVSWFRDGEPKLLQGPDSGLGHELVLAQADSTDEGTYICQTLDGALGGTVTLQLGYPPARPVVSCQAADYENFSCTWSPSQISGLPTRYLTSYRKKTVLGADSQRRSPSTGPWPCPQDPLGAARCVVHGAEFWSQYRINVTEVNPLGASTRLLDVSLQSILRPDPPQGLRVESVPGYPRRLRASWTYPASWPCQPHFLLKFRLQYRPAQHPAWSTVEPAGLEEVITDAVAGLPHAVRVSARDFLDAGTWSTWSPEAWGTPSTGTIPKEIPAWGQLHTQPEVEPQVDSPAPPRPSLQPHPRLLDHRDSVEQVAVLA

IL-6:sIL-6R complex, sequence (P05231 30-212, chain 1 of 2): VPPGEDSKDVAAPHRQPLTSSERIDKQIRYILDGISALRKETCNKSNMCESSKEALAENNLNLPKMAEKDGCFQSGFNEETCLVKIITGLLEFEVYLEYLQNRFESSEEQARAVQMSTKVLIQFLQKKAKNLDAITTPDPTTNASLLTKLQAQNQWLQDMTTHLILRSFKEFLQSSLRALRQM
IL-6:sIL-6R complex, sequence (P08887 20-365, chain 2 of 2, further chain): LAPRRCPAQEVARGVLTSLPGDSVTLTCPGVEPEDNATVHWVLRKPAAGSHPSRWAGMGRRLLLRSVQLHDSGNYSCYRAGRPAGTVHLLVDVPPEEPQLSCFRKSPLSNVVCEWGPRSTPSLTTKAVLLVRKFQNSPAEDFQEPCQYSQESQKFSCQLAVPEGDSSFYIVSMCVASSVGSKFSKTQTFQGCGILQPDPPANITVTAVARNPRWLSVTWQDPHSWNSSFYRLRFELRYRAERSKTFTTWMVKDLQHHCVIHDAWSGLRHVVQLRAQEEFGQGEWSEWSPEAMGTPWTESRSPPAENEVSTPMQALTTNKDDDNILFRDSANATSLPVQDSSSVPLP
sgp130Fc, sequence (P40189 23-619): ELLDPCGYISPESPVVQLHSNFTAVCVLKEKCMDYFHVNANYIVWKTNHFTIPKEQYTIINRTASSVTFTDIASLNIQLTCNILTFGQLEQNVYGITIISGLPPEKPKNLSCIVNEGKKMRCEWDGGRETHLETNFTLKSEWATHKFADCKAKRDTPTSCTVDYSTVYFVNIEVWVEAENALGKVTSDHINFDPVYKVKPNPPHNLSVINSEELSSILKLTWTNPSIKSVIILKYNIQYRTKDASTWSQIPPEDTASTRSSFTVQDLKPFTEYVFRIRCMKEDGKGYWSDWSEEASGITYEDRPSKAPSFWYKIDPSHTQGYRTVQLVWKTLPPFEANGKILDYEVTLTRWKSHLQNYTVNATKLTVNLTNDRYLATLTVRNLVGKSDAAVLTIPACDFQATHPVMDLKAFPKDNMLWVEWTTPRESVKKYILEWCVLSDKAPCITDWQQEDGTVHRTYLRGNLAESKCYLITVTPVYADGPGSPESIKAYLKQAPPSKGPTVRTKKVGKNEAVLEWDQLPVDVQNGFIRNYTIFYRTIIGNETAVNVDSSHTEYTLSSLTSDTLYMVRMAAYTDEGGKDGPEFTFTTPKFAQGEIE
Hyper-IL-6 (Homo sapiens), sequence (P05231 30-212, chain 1 of 2): as the sequence (P05231 30-212, chain 1 of 2) above
Hyper-IL-6 (Homo sapiens), sequence (partner, as listed by the source, chain 2 of 2): as the sequence (P08887 20-365, chain 2 of 2, further chain) above
sgp130^R281QFc, sequence (P40189 23-619 R281Q): as the sequence (P40189 23-619) above, with R259Q counted along it

- IC50 of inhibition of sIL-6R/IL-6 (50/100 ng/ml) induced proliferation of Ba/F3-gp130 cells (blocks the complex from membrane-bound gp130) (IL-6:sIL-6R complex): 0.78 nM
Substance: sgp130^R281QFc (from UniProt P40189 23-619) (Fc fusion)

Substance: sgp130FlyFc ECD (from UniProt P40189)
- pKd [1]: 9.91

- IC50 of inhibition of IL-6/sIL-6R (50/100 ng/ml) induced proliferation of Ba/F3-gp130 cells (blocks the complex from membrane-bound gp130) (IL-6:sIL-6R complex): 0.45 nM
- IC50 of inhibition of sIL-11R/IL-11 (10/100 ng/ml) induced proliferation of Ba/F3-gp130 cells (blocks the complex from membrane-bound gp130) (IL-11:sIL-11R complex): 0.29 nM
Substance: sgp130Fc (from UniProt P40189 23-619) (Fc fusion)
